Kd, koff and kon data for 6 molecules are collected here from article PMC6698954 (Antibodies, 2018).

The labels stand for the following.
B1: anti-WEEV E2/E3E2 single-domain antibody WE10 (VHH)
VHH: DVQLQASGGGLVQAGGSLRLSCVASGLTFVNYAIDWYRQAPGKEREVVAGMWNDGVAYYGDFVKGRFTIARDNAKNTVYLQMNNLKPEDTAVYFCGARSRPNLQYDYWGQGTQVTVSS
notes: also called Bt-WE10
B2: anti-WEEV E2/E3E2 single-domain antibody WC10 (VHH)
VHH: DVQLQASGGGLVEAGGSLRLSCTTSGISVRNSDMGWYRQGPGKQRELIARSSRGGATNYLDSVTGRFTISRDNIKNTVFLQMNSLKPEDTAVYYCNTNPINHWNVWGQGTQVTVSS
notes: also called Bt-WC10
B3: anti-WEEV E2/E3E2 single-domain antibody WH11 (VHH)
VHH: EVQLQASGGGLVQAGGSLRLTCVASGLTFVNYALDWYRQAPGKERELVAGMWSDGVAYYGDFVKGRFTMSRDNAKNMVYLQMNSLEPEDTAVYSCAARSRPTTQYDYWGQGTQVTVSS
notes: also called Bt-WH11
B4: anti-WEEV E2/E3E2 single-domain antibody WB9 (VHH)
VHH: DVQLQASGGGLVQAGGSLRLSCATSGISVSNSDMGWYRQGPGKQRELVARNSRAGTTNYLDSVKGRFTISRDNAKNMVFLQMNSLKLEDTAVYYCNTNPINRWNIWGQGAQVTVSS
notes: also called Bt-WB9
B5: anti-WEEV E2/E3E2 single-domain antibody WF4 (VHH)
VHH: DVQLQASGGGLVQAGGSLRLSCAVSDNTTSLNGMGYYRGPPGKQREFVAYARNNGAPKYADSVMGRFTISVDNSKATVYLQMNNLGPEDTALYYCYAPDRWHTYWAGGTQVTVSS
notes: also called Bt-WF4
B6: anti-WEEV E2/E3E2 single-domain antibody WD11f (VHH)
VHH: EVQLQASGGGLVQSGGSLRLSCAGSGGTESSYRMAWFRQAPGTERVFVARVSDGGGSILYADSAKGRFTISRDNGKNTIHLQMFSLKPEDTAVYFCAAAFSWMPPSTVAADYEYWGQGTQVTVSS
notes: also called Bt-WD11f

The assay has as its target T1, Recombinant WEEV glycoprotein (E2/E3E2) (Western equine encephalitis virus, …, UniProt P13897).
T1 construct: source: bought: IBT Bioservices
Put plainly: SPR; ProteOn XPR36; […] (20 µg/mL in 10 mM sodium acetate pH 5.0); […]. As to conditions: both partners purified.
For B1, the dissociation constant Kd was determined as 12 nM, the koff was 0.00083 s⁻¹ and the kon stood at 70000 M⁻¹ s⁻¹.
As for B2, the Kd turned out to be 8.5 nM, the koff was determined as 0.85 s⁻¹ and the kon was 1e+08 M⁻¹ s⁻¹.
B3: the Kd is 22 nM, the koff came to 0.0033 s⁻¹ and the kon was determined as 150000 M⁻¹ s⁻¹.
With B4, the Kd was 2.6 nM, the koff stood at 0.0029 s⁻¹ and the kon was 1.1e+06 M⁻¹ s⁻¹.
The matching figures for B5: 24 nM, 0.0015 s⁻¹ and 63000 M⁻¹ s⁻¹.
In the case of B6, the Kd was 7.2 nM, the koff came out at 0.53 s⁻¹ and the kon came out at 7.3e+07 M⁻¹ s⁻¹.
